Measured values: patent US20160122742A1 (published 2016)

B1: ORC Ubiquitin-ligase 1 (OBI1), human, endogenous protein of the cells (enzyme)
chain: MAQTVQNVTLSLTLPITCHICLGKVRQPVICINNHVFCSICIDLWLKNNSQCPACRVPITPENPCKEIIGGTSESEPMLSHTVRKHLRKTRLELLHKEYEDEIDCLQKEVEELKSKNLSLESQIKTILDPLTLVQGNQNEDKHLVTDNPSKINPETVAEWKKKLRTANEIYEKVKDDVDKLKEANKKLKLENGGLVRENLRLKAEVDNRSPQKFGRFAVAALQSKVEQYERETNRLKKALERSDKYIEELESQVAQLKNSSEEKEAMNSICQTALSADGKGSKGSEEDVVSKNQGDSARKQPGSSTSSSSHLAKPSSSRLCDTSSARQESTSKADLNCSKNKDLYQEQVEVMLDVTDTSMDTYLEREWGNKPSDCVPYKDEELYDLPAPCTPLSLSCLQLSTPENRESSVVQAGGSKKHSNHLRKLVFDDFCDSSNVSNKDSSEDDISRSENEKKSECFSSPKTGFWDCCSTSYAQNLDFESSEGNTIANSVGEISSKLSEKSGLCLSKRLNSIRSFEMNRTRTSSEASMDAAYLDKISELDSMMSESDNSKSPCNNGFKSLDLDGLSKSSQGSEFLEEPDKLEEKTELNLSKGSLTNDQLENGSEWKPTSFFLLSPSDQEMNEDFSLHSSSCPVTNEIKPPSCLFQTEFSQGILLSSSHRLFEDQRFGSSLFKMSSEMHSLHNHLQSPWSTSFVPEKRNKNVNQSTKRKIQSSLSSASPSKATKS
notes: Untagged endogenous Obi1 of HeLa S3 or U2OS cells, co-purified with tagged baits or acting on transfected ORC subunits; also called RNF219; Obi1/RFN219
B2: Myc-tagged mutated Obi1 (truncated Obi1 protein of the Meier-Gorlin patient) (other)
chain: MAQTVQNVTLSLTLPITCHICLGKVRQPVICINNHVFCSICIDLWLKNNSQCPACRVPITPENPCKEIIGGTSESEPMLSHTVRKHLRKTRLELLHKEYEDEIDCLQKEVEELKSKNLSLESQIKTILDPLTLVQGNQNEDKHLVTDNPSKINPETVAEWKKKLRTANEIYEKVKDDVDKLKEANKKLKLENGGLVRENLRLKAEVDNRSPQKFGRFAVAALQSKVEQYERETNRLKKALERSDKYIEELESQVAQLKNSSEEKEAMNSICQTALSADGKGSKGSEEDVVSKNQGDSARKQPGSSTSSSSHLAKPSSSRLCDTSSARQESTSKADLNCSKNKDLYQEQVEVMLDVTDTSMDTYLEREWGNKPSDCVPYKDEELYDLPAPCTPLSLSCLQLSTPENRESSVVQAGGSKKHSNHLRKLVFDDFCDSSNVSNKDSSEDDISRSENEKKSVFFFPKDRILGLLFHKLCPKLRF
notes: also called C.1370_1371delAA,P.GLU457VALFSX24; not shown: Myc tag

Columns and labels:
Flag tagged ORC3, Q9UBD5 = target: T1, Flag tagged ORC3, Q9UBD5
T1 chain: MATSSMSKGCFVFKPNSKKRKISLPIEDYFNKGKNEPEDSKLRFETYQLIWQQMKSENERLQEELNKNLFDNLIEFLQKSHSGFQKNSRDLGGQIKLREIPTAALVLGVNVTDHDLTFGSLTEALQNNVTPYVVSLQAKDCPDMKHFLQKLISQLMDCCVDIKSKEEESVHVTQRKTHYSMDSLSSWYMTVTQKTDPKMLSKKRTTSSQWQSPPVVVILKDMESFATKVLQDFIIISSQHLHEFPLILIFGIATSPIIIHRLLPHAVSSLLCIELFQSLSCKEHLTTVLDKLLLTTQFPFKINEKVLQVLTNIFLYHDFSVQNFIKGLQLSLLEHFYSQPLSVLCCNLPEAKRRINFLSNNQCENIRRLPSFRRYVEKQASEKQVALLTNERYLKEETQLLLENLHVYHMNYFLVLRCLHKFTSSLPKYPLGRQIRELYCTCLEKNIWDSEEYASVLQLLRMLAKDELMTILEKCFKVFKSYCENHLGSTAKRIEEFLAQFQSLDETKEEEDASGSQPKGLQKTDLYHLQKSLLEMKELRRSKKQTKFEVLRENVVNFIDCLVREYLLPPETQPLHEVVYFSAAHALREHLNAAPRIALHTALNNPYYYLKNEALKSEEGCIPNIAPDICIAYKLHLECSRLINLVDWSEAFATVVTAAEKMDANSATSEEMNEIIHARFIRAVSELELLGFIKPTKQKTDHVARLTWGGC

[1] = target: T2, Flag tagged ORC1 (N-terminal Flag, pCS2-Flag)
T2 chain: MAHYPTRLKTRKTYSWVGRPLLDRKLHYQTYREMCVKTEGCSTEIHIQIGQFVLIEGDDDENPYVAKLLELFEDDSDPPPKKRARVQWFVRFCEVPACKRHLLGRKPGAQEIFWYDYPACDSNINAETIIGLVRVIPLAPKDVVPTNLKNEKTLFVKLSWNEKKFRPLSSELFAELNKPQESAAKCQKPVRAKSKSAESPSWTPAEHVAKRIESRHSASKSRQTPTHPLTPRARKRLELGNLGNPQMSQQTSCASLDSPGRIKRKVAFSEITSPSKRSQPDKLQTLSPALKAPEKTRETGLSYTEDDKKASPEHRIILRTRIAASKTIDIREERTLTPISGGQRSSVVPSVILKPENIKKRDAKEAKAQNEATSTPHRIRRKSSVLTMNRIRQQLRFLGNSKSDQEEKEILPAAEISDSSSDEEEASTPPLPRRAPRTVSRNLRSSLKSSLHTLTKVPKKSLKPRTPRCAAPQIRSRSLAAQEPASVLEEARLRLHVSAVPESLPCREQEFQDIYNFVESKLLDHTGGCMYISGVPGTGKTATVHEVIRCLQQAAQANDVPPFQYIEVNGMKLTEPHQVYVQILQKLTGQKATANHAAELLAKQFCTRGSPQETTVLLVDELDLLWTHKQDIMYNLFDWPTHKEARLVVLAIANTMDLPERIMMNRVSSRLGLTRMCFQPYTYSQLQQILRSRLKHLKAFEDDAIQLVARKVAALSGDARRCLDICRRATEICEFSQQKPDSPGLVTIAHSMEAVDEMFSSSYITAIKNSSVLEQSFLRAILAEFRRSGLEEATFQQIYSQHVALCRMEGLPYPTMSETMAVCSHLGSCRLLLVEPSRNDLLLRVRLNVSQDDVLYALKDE

Flag tagged ORC5, O43913 = target: T3, Flag tagged ORC5, O43913
T3 chain: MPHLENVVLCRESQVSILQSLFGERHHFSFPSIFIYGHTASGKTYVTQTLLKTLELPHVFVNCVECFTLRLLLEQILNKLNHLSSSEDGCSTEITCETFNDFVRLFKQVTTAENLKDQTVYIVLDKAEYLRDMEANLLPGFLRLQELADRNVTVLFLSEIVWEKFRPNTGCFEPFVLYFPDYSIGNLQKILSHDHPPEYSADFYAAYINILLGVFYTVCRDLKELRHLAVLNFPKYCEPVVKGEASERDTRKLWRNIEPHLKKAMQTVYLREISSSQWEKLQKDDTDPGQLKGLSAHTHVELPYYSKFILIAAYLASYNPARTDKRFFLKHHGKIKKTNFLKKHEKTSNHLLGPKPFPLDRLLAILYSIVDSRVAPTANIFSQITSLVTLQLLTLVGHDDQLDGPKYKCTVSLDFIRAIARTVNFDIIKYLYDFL

[2] = target: T4, human ORC1 with C-terminal Flag-HA tag (human, UniProt Q13415 1-861); assay: TAP-TAG (tandem Flag/HA immunoprecipitation from HeLa S3 nuclear extract), silver staining and mass spectrometry
T4 construct: Stably expressed in HeLa S3 cells; also called ORC1 FLAG-HA; FLAG-HA tagged ORC1; not shown: in-frame C-terminal Flag-HA tag of pOZ-FH-C
T4 sequence: T2 chain
Procedure: The beads were washed twice with 1 mL of HA-IP Buffer (150 mM KCl; 20 mM Tris pH 7.5 0.05% NP40; 0.1% Tween; 10% Glycerol; 5 mM MgCl₂; 1 mM DTT and 10 mM PMSF). After the last centrifugation, beads were resuspended in HA-IP Buffer (1 vol of Beads). Extracts were incubated with Flag beads for 4 h with agitation at 4 C. Beads were pelleted (3 min at 3000 rpm 4° C.). Beads were washed 5 times with HA IP Buffer: Beads are pelleted (3K 3 min 4° C.) and the supernatant discarded. Complexes were eluted from the beads by incubating in 3 beads volume of HA IP Buffer supplemented with Flag peptide (200 μg/mL, Sigma) for 1 hour at 4 C with agitation. The supernatant was kept on ice and a second elution was conducted. The eluates were pooled and subjected to an anti-HA immunoprecipitation. Before, anti-HA coupled agarose beads (SantaCruz Biotechnology) were washed with glycine buffer as described above. 10 μL of beads was used per IP. Flag eluates were incubated with anti-HA beads for 2 hours at 4 C with agitation. Beads were pelleted (3 min at 3000 rpm 4° C.). Beads were washed 5 times with HA IP Buffer: Beads are pelleted (3K 3 min 4° C.) and the supernatant discarded. Complexes were eluted from the beads by incubating in 3 beads volume of HA IP Buffer supplemented with HA peptide (400 μg/mL, Roche) for 1 hour at 4 C with agitation. The supernatant was keep on ice and a second elution was conducted. […]

[3] = target: T5, Flag tagged ORC1 (N-terminal Flag, pCS2-Flag) (human, UniProt Q13415 1-861); assay: anti-Flag co-immunoprecipitation from U2OS cells, western blot with anti-Myc
T5 construct: Transiently expressed in U2OS cells; also called Flag-ORC1
T5 sequence: T2 chain
Procedure: For cell lysis, immunoprecipitation and western blotting were performed following standard methods. Briefly, cells were lysed in TK300 lysis buffer (20 mM Tris-HCl pH 7.9; 300 mM KCl, 5 mM MgCl2, 10% glycerol; 0.5% NP-40 plus protease inhibitors cocktail) on ice for 30 min. The protein concentration of the clarified lysates was estimated using the BCA method (Pierce). For immunoprecipitation experiments, equivalent amounts of protein samples were incubated at 4° C. with anti-Flag coupled agarose beads (Sigma Aldrich) for 4 h. After extensive washing with TK300 lysis buffer, bound proteins were eluted in boiling Laemmli buffer. Samples were runs on pre-cast gradient gel (NuPage Novex, Invitrogen and Mini-PROTEAN TGX, Biorad) and transferred to nitrocellulose membrane.
U20S cells were transiently transfected with plasmids coding for Myc-tagged WT Obi1 or mutated Obi1, and also co-transfected with plasmids coding for Flag-ORC1. 48 hours post-transfection, cells were lyzed and the soluble fraction was subjected to an anti-Flag immunoprecipitation (IP:Flag—FIG. 24B). Ectopic proteins were detected by western blotting. Under these conditions, specific Obi1/ORC1 complex is detected in the immunoprecipitate. In contrast, no association is observed between ORC1 and the mutated Obi1 protein (FIG. 24B).

Row | Binder | poly-ubiquitination of Flag ORC3 after siRNA knockdown of Obi1 (Flag tagged ORC3, Q9UBD5) | ubiquitination of Flag tagged ORC subunits (HA-ubiquitin adducts after anti-Flag IP) (Flag tagged ORC3, Q9UBD5) | ubiquitination of Flag tagged ORC subunits (HA-ubiquitin adducts after anti-Flag IP) [1] | poly-ubiquitination of Flag ORC5 after siRNA knockdown of Obi1 (Flag tagged ORC5, O43913) | ubiquitination of Flag tagged ORC subunits (HA-ubiquitin adducts after anti-Flag IP) (Flag tagged ORC5, O43913) | binding result [2] | binding result [3]
1 | B1 | cells that does not express Obi1 are not able to poly-ubiquitinate either ORC3 or ORC5 | OC1, ORC3 and ORC5 are ubiquitinated in presence of Obi1, and in particular that ORC3 and ORC5 show strong polyubiquitylation | OC1, ORC3 and ORC5 are ubiquitinated in presence of Obi1 | cells that does not express Obi1 are not able to poly-ubiquitinate either ORC3 or ORC5 | OC1, ORC3 and ORC5 are ubiquitinated in presence of Obi1, and in particular that ORC3 and ORC5 show strong polyubiquitylation | binds | 
2 | B2 |  |  |  |  |  |  | no binding
